Test results reported in the supplement of paper PMC7877785.
± gives the uncertainty stated by the source.

Test: self-splicing fitness, log relative to wild type (ln ratio); higher = more splicing; Tetrahymena group I intron in knt gene, E. coli kanamycin selection, DiMSum; sequences stand for … in CUCUCU…GGAGGGAAAAGUUAUCAGGCAUGCACCUGGUAGCUAGUCUUUAAACCAAUAGAUUGCAUCGGUUUAAAAGGCAAGACCGUCAAAUUGCGGGAAAGGGGUCAACAGCCGUUCAGUACCAAGUCUCAGGGGAAACUUUGAGAUGGCCUUGCAAAGGGUAUGGUAAUAAGCUGACGGACAUGGUCCUAACCACGCAGCCAAGUCCUAAGUCAACAGAUCUUCUGUUGAUAUGGAUGCAGUUCACAGACUAAAUGUCGGUCGGGGAAGAUGUAUUCUUCUCAUAAGAUAUAGUCGGACCUCUCCUUAAUGGGAGCUAGCGGAUGAAGUGAUGCAACACUGGAGCCGCUGGGAACUAAUUUGUAUGCGAAAGUAUAUUGAUUAGUUUUGGAGUACUCGUGGUCG
Outline: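 Pooled colonies went to amplicon sequencing on an Illumina HiSeq 2500 after six replicate transformations. The plates were LB agar with 100 μg/mL carbenicillin, 50 μM IPTG and 0.2% rhamnose, with or without 25 μg/mL kanamycin, incubated overnight at 37°C or 30°C. The E. coli BL21(DE3) library had all eight P1ex-region intron nucleotides randomised, the intron placed in the knt kanamycin-resistance gene on pET-22b(+). DiMSum fitness is the error-weighted combination of replicate fold changes, kanamycin against none, normalised to wild type.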

Row | Sequence | self-splicing fitness (ln) (30 °C) | self-splicing fitness (ln) (37 °C)
1 | ACACAGCAAUAUUACGAGCG | -0.734 ± 0.074 | -0.104 ± 0.088
2 | ACACAGCAAUAUUACGAGGU | -2.85 ± 0.13 | -2.04 ± 0.14
3 | ACACAGCAAUAUUACGAUCG | -0.738 ± 0.077 | -0.032 ± 0.1
4 | ACACAGCAAUAUUACGAUGG | -1.53 ± 0.064 | -0.66 ± 0.082
5 | ACACAGCAAUAUUACGCAAG | -1.7 ± 0.1 | -0.825 ± 0.11
6 | ACACAGCAAUAUUACGCAGC | -3.73 ± 0.19 | -2.47 ± 0.17
7 | ACACAGCAAUAUUACGCGAU | -3.11 ± 0.11 | -2.02 ± 0.11
8 | ACACAGCAAUAUUACGCGCC | -0.614 ± 0.11 | -1.13 ± 0.1
9 | ACACAGCAAUAUUACGCUAC | -3.73 ± 0.35 | -2.63 ± 0.26
10 | ACACAGCAAUAUUACGCUAU | -2.81 ± 0.082 | -1.53 ± 0.079
11 | ACACAGCAAUAUUACGGAAU | -2.58 ± 0.084 | -2.31 ± 0.15
12 | ACACAGCAAUAUUACGGACU | -0.884 ± 0.054 | 0.0735 ± 0.063
13 | ACACAGCAAUAUUACGGAGA | -4.21 ± 0.21 | -2.23 ± 0.14
14 | ACACAGCAAUAUUACGGCGC | -0.533 ± 0.067 | 0.309 ± 0.079
15 | ACACAGCAAUAUUACGGGGA | -2.3 ± 0.077 | -0.729 ± 0.067
16 | ACACAGCAAUAUUACGGUGG | -2.44 ± 0.08 | -1.67 ± 0.099
17 | ACACAGCAAUAUUACGUCCA | -1.09 ± 0.089 | -0.474 ± 0.096
18 | ACACAGCAAUAUUACGUCUU | -1.17 ± 0.046 | 0.012 ± 0.058
19 | ACACAGCAAUAUUACGUGGA | -2.25 ± 0.096 | -1.18 ± 0.066
20 | ACAGAGCAAUAUUACGAAAU | -2.57 ± 0.45 | -1.01 ± 0.29
21 | ACAGAGCAAUAUUACGAAGU | -2.65 ± 0.14 | -2.58 ± 0.29
22 | ACAGAGCAAUAUUACGAGGA | -3.04 ± 0.21 | -2.49 ± 0.23
23 | ACAGAGCAAUAUUACGAUGG | -3.24 ± 0.14 | -3.32 ± 0.23
24 | ACAGAGCAAUAUUACGCACA | – | -1.39 ± 0.36

Row | Sequence | self-splicing fitness (ln) (30 °C) | self-splicing fitness (ln) (37 °C)
25 | ACAGAGCAAUAUUACGCACG | -3.11 ± 0.22 | -3.43 ± 0.25
26 | ACAGAGCAAUAUUACGCCAC | -2.45 ± 0.38 | -1.33 ± 0.43
27 | ACAGAGCAAUAUUACGCCAU | -3.46 ± 0.42 | -1.97 ± 0.23
28 | ACAGAGCAAUAUUACGCGAG | -2.31 ± 0.14 | -2.43 ± 0.16
29 | ACAGAGCAAUAUUACGCGGA | -3.57 ± 0.29 | -2.62 ± 0.19
30 | ACAGAGCAAUAUUACGCGGC | -3.41 ± 0.3 | -2.18 ± 0.37
31 | ACAGAGCAAUAUUACGCGGU | -4.3 ± 0.41 | -2.43 ± 0.28
32 | ACAGAGCAAUAUUACGCUAC | -3.21 ± 0.43 | –
33 | ACAGAGCAAUAUUACGCUCG | -1.05 ± 0.13 | -1.12 ± 0.2
34 | ACAGAGCAAUAUUACGCUGA | -3.27 ± 0.19 | -1.47 ± 0.16
35 | ACAGAGCAAUAUUACGGAAC | – | -1.97 ± 0.36
36 | ACAGAGCAAUAUUACGGGCC | -1.79 ± 0.29 | –
37 | ACAGAGCAAUAUUACGGGGG | -3.7 ± 0.19 | -2.31 ± 0.2
38 | ACAGAGCAAUAUUACGGGUA | -2.47 ± 0.36 | -3 ± 0.31
39 | ACAGAGCAAUAUUACGGUAG | -2.61 ± 0.13 | -2.49 ± 0.18
40 | ACAGAGCAAUAUUACGGUUC | -3.68 ± 0.23 | -2.16 ± 0.22
41 | ACAGAGCAAUAUUACGGUUG | -3.68 ± 0.24 | -3.02 ± 0.22
42 | ACAGAGCAAUAUUACGUGGC | -3.8 ± 0.25 | -2.31 ± 0.32
43 | ACAGAGCAAUAUUACGUUCA | -2.1 ± 0.14 | -2.33 ± 0.2
44 | ACAGAGCAAUAUUACGUUGA | -2.69 ± 0.21 | -3.28 ± 0.27
45 | ACAUAGCAAUAUUACGAACA | 0.105 ± 0.14 | -1.05 ± 0.17
46 | ACAUAGCAAUAUUACGAGAU | -4.08 ± 0.29 | -2.66 ± 0.26
47 | ACAUAGCAAUAUUACGAGUC | -3.91 ± 0.27 | -3.33 ± 0.25
48 | ACAUAGCAAUAUUACGAUUA | -0.756 ± 0.1 | -0.602 ± 0.14

Row | Sequence | self-splicing fitness (ln) (30 °C) | self-splicing fitness (ln) (37 °C)
49 | ACAUAGCAAUAUUACGCAAU | -3.57 ± 0.21 | -2.67 ± 0.24
50 | ACAUAGCAAUAUUACGCCAG | -2.65 ± 0.18 | -1.5 ± 0.21
51 | ACAUAGCAAUAUUACGCCCC | -1.98 ± 0.39 | -0.782 ± 0.41
52 | ACAUAGCAAUAUUACGGAGC | – | -0.767 ± 0.15
53 | ACAUAGCAAUAUUACGGAUC | -3.05 ± 0.15 | -1.21 ± 0.12
54 | ACAUAGCAAUAUUACGGAUG | -1.77 ± 0.12 | -1.6 ± 0.14
55 | ACAUAGCAAUAUUACGGCCG | -0.333 ± 0.15 | 0.385 ± 0.24
56 | ACAUAGCAAUAUUACGGCUA | -0.773 ± 0.055 | -0.391 ± 0.068
57 | ACAUAGCAAUAUUACGGGGC | -2.87 ± 0.12 | -1.81 ± 0.13
58 | ACAUAGCAAUAUUACGGGGG | -3.09 ± 0.14 | -2.58 ± 0.2
59 | ACAUAGCAAUAUUACGGUGA | -0.929 ± 0.066 | -0.247 ± 0.086
60 | ACAUAGCAAUAUUACGUCCG | -1.62 ± 0.11 | -1.2 ± 0.14
61 | ACAUAGCAAUAUUACGUGAG | -0.863 ± 0.036 | -0.206 ± 0.062
62 | ACAUAGCAAUAUUACGUUGC | -4.02 ± 0.33 | -2 ± 0.28
63 | ACCAAGCAAUAUUACGACGA | -1.11 ± 0.12 | -0.623 ± 0.13
64 | ACCAAGCAAUAUUACGCGGA | -1.11 ± 0.068 | -0.537 ± 0.077
65 | ACCAAGCAAUAUUACGCGUA | -1.11 ± 0.075 | -0.487 ± 0.075
66 | ACCAAGCAAUAUUACGCUUC | -3.27 ± 0.15 | -1.71 ± 0.12
67 | ACCAAGCAAUAUUACGGAAC | -3.63 ± 0.21 | -1.99 ± 0.2
68 | ACCAAGCAAUAUUACGGACC | -0.368 ± 0.098 | -0.214 ± 0.12
69 | ACCAAGCAAUAUUACGGCAU | -0.931 ± 0.049 | -0.0435 ± 0.066
70 | ACCAAGCAAUAUUACGGGCA | -0.376 ± 0.06 | -0.0824 ± 0.072
71 | ACCAAGCAAUAUUACGGGGU | -3.66 ± 0.14 | -3.5 ± 0.19
72 | ACCAAGCAAUAUUACGGGUC | -4.12 ± 0.17 | -2.67 ± 0.14

Row | Sequence | self-splicing fitness (ln) (30 °C) | self-splicing fitness (ln) (37 °C)
73 | ACCAAGCAAUAUUACGGGUU | -4.06 ± 0.14 | -3.14 ± 0.17
74 | ACCAAGCAAUAUUACGGUCG | -3.81 ± 0.22 | -2.56 ± 0.15
75 | ACCAAGCAAUAUUACGUAAG | -2.18 ± 0.063 | -1.37 ± 0.098
76 | ACCAAGCAAUAUUACGUCAA | -3.35 ± 0.17 | -3 ± 0.16
77 | ACCAAGCAAUAUUACGUCGU | -2.34 ± 0.076 | -1.88 ± 0.11
78 | ACCAAGCAAUAUUACGUCUG | -2.55 ± 0.1 | -1.02 ± 0.1
79 | ACCAAGCAAUAUUACGUUGA | -2.83 ± 0.12 | -2.01 ± 0.11
80 | ACCCAGCAAUAUUACGAAGU | -0.678 ± 0.058 | 0.183 ± 0.074
81 | ACCCAGCAAUAUUACGACAC | -2.41 ± 0.091 | -0.292 ± 0.083
82 | ACCCAGCAAUAUUACGACGC | 0.24 ± 0.085 | 0.483 ± 0.11
83 | ACCCAGCAAUAUUACGAGGA | -0.706 ± 0.068 | -1.08 ± 0.077
84 | ACCCAGCAAUAUUACGAGUU | -1.14 ± 0.048 | -0.101 ± 0.061
85 | ACCCAGCAAUAUUACGAUGG | -2.94 ± 0.095 | -1.26 ± 0.085
86 | ACCCAGCAAUAUUACGAUUU | -0.881 ± 0.054 | 0.0888 ± 0.069
87 | ACCCAGCAAUAUUACGCACG | -1.86 ± 0.067 | -1.01 ± 0.084
88 | ACCCAGCAAUAUUACGCCAG | -3.26 ± 0.21 | -2.55 ± 0.33
89 | ACCCAGCAAUAUUACGCUAU | -0.847 ± 0.066 | -0.75 ± 0.08
90 | ACCCAGCAAUAUUACGCUGG | -2.83 ± 0.14 | -2.4 ± 0.18
91 | ACCCAGCAAUAUUACGGACA | -0.0478 ± 0.08 | -0.181 ± 0.089
92 | ACCCAGCAAUAUUACGGCUC | -1.46 ± 0.058 | -0.423 ± 0.073
93 | ACCCAGCAAUAUUACGGCUU | -0.338 ± 0.071 | 0.053 ± 0.089
94 | ACCCAGCAAUAUUACGGGAC | -2.71 ± 0.1 | -1.54 ± 0.1
95 | ACCCAGCAAUAUUACGGGAU | -2.6 ± 0.085 | -1.01 ± 0.076
96 | ACCCAGCAAUAUUACGGGUU | -4.18 ± 0.12 | -2.84 ± 0.13
